Earlier results on 2 substances are cited in paper PMC5418926.

For the series, the target named is Lys53 (UniProt position 53, YGGQTKPIFRK). Briefly: chemical modification (inferred: crosslinking with periodate-oxidised tRNA); not described in this article.

Consider “60S ribosomal protein eL42 (formerly L36a / RPL36A), recombinant (Homo sapiens)”, for which the pKa (recombinant eL42 off the ribosome) is listed as 6.9 + 0.1. “60S ribosomal protein eL42 (L36a-like / RPL36AL), endogenous, in the human 80S ribosome (Homo sapiens)”: the pKa (endogenous eL42 in situ in the human 80S ribosome, crosslinked with tRNAox) is listed as 6.9 ± 0.1.

Usually pKa stands for the negative logarithm of the acid dissociation constant.
